Measured values reported in paper PMC4726260, “Combined ligand-observe ^19F and protein-observe ^15N,^1H-HSQC NMR suggests phenylalanine as the key Δ-somatostatin residue recognized by human protein disulfide isomerase” (Scientific Reports, 2016).

Key:
Test in all cases: NMR titration; ligand-observed 19F 1D; 0.15 mM fluorinated peptide constant, 15N b'x titrated (ratios 1:4 to 2.5:1); 310 K; 20 mM sodium phosphate pH 7.0, 50 mM NaCl, 5% D6-DMSO, 5% 2H2O, 0.05% sodium azide
F3 Δ-som = target: F3 Δ-som
F2 Δ-som = target: F2 Δ-som
F1,2,3 Δ-som = target: F1,2,3 Δ-som
F1 Δ-som = target: F1 Δ-som

Kd (F3 Δ-som): 97 µM
Kd (F2 Δ-som): 27 µM
KD tracked on the F1 (Phe6) 19F resonance (F1,2,3 Δ-som): 108 µM
KD tracked on the F2 (Phe7) 19F resonance (F1,2,3 Δ-som): 33 µM
KD tracked on the F3 (Phe11) 19F resonance (F1,2,3 Δ-som): 45 µM
Kd (F1,2,3 Δ-som): 62 µM
Kd (F1 Δ-som): 109 µM
Substance: human protein disulphide isomerase (hPDI) fragment b'x (domain or fragment)
